Laboratory results taken from publication PMC12867014, “Angiopoietin-like 3 monomers are abundant in human plasma but are unable to inhibit endothelial lipase” (JCI Insight, 2025).
Blank lines part the entries; values can stand above or below the molecule they belong to.

Legend:
[1] = target: ANGPTL3 of human serum (human (endogenous in serum)); experiment: SEC; Superdex 200 of pooled human serum, alone or spiked with conditioned media of recombinant wild-type or L124A human ANGPTL3 (L124A also run without serum); total ANGPTL3, trimeric ANGPTL3 and ANGPTL3/8 complexes in the fractions measured by dedicated immunoassays
[2] = target: Strep-tagged mouse ANGPTL3 (angiopoietin-like 3), wild-type (mouse); experiment: mass photometry; Refeyn TwoMP, ambient temperature, DPBS; ANGPTL3 purified from conditioned media by Strep-TactinXT affinity chromatography
[3] = target: Strep-tagged mouse ANGPTL3 (angiopoietin-like 3), wild-type (mouse); experiment: native gel or EMSA; blue NativePAGE (Bis-Tris 3-12% gels, run at room temperature) of conditioned media, immunoblot with an antibody against ANGPTL3
[4] = target: endogenous ANGPTL3 secreted from Huh7 cells (human (endogenous in Huh7)); experiment: as above
[5] = target: mouse ANGPTL3 S220A-R221A (cleavage-resistant) (mouse); experiment: mass photometry; Refeyn TwoMP, ambient temperature, DPBS; ANGPTL3 purified from conditioned media by Strep-TactinXT affinity chromatography
[6] = target: mouse ANGPTL3 S220A-R221A (cleavage-resistant) (mouse); experiment: native gel or EMSA; blue NativePAGE (Bis-Tris 3-12% gels, run at room temperature) of conditioned media, immunoblot with an antibody against ANGPTL3
[7] = Western blot of conditioned media; conditions: glycan lost; control: wild type
[8] = target: the molecule itself; experiment: SEC; Superdex 200 of pooled human serum, alone or spiked with conditioned media of recombinant wild-type or L124A human ANGPTL3 (L124A also run without serum); total ANGPTL3, trimeric ANGPTL3 and ANGPTL3/8 complexes in the fractions measured by dedicated immunoassays

Molecule: ANGPTL3 of human serum (natural protein)
stoichiometry N [1]: 3

B1: ANGPTL3: M116A-S117A (protein)
parent chain: MHTIKLFLFVVPLVIASRVDPDLSSFDSAPSEPKSRFAMLDDVKILANGLLQLGHGLKDFVHKTKGQINDIFQKLNIFDQSFYDLSLRTNEIKEEEKELRRTTSTLQVKNEEVKNMSVELNSKLESLLEEKTALQHKVRALEEQLTNLILSPAGAQEHPEVTSLKSFVEQQDNSIRELLQSVEEQYKQLSQQHMQIKEIEKQLRKTGIQEPSENSLSSKSRAPRTTPPLQLNETENTEQDDLPADCSAVYNRGEHTSGVYTIKPRNSQGFNVYCDTQSGSPWTLIQHRKDGSQDFNETWENYEKGFGRLDGEFWLGLEKIYAIVQQSNYILRLELQDWKDSKHYVEYSFHLGSHETNYTLHVAEIAGNIPGALPEHTDLMFSTWNHRAKGQLYCPESYSGGWWWNDICGENNLNGKYNKPRTKSRPERRRGIYWRPQSRKLYAIKSSKMMLQPTT
expression_or_secretion [7]: no change

B2: recombinant wild-type human ANGPTL3 (His-tagged) (natural protein, UniProt Q9Y5C1 17-460, looked up)
chain: SRIDQDNSSFDSLSPEPKSRFAMLDDVKILANGLLQLGHGLKDFVHKTKGQINDIFQKLNIFDQSFYDLSLQTSEIKEEEKELRRTTYKLQVKNEEVKNMSLELNSKLESLLEEKILLQQKVKYLEEQLTNLIQNQPETPEHPEVTSLKTFVEKQDNSIKDLLQTVEDQYKQLNQQHSQIKEIENQLRRTSIQEPTEISLSSKPRAPRTTPFLQLNEIRNVKHDGIPAECTTIYNRGEHTSGMYAIRPSNSQVFHVYCDVISGSPWTLIQHRIDGSQNFNETWENYKYGFGRLDGEFWLGLEKIYSIVKQSNYVLRIELEDWKDNKHYIEYSFYLGNHETNYTLHLVAITGNVPNAIPENKDLVFSTWDHKAKGHFNCPEGYSGGWWWHDECGENNLNGKYNKPRAKSKPERRRGLSWKSQNGRLYSIKSTKMLIHPTDSESFE
notes: angiopoietin-like 3 (ANGPTL3), human, secreted into the medium; also called WT human ANGPTL3; wild-type trimeric ANGPTL3; source: HEK293T, transient transfection (Fugene6), conditioned media
stoichiometry N [8]: 3

The remaining lines, values ahead:

percent present as homotrimer [2]: 58% | stoichiometry N [2]: 3 | stoichiometry N [3]: 3
Molecule: Strep-tagged mouse ANGPTL3 (angiopoietin-like 3), wild-type (natural protein)

stoichiometry N [4]: 3
Molecule: endogenous ANGPTL3 secreted from Huh7 cells (natural protein)

stoichiometry N [5]: 3 | stoichiometry N [6]: 3
Molecule: mouse ANGPTL3 S220A-R221A (cleavage-resistant) (natural protein)
